Substrate: C[C@@H](O)[C@H](N)C(=O)O
Assay: purified protein
Assay type: biochemical, Saccharomyces cerevisiae
Settings: 2.5 mM ATP, 2 mM PPi, 10 mM MgCl2, pH 7.5, 30 °C, no tRNA

B1: ScThrRS (Saccharomyces cerevisiae S288C) (protein)
chain: MSASEAGVTEQVKKLSVKDSSNDAVKPNKKENKKSKQQSLYLDPEPTFIEERIEMFDRLQKEYNDKVASMPRVPLKIVLKDGAVKEATSWETTPMDIAKGISKSLADRLCISKVNGQLWDLDRPFEGEANEEIKLELLDFESDEGKKVFWHSSAHVLGESCECHLGAHICLGPPTDDGFFYEMAVRDSMKDISESPERTVSQADFPGLEGVAKNVIKQKQKFERLVMSKEDLLKMFHYSKYKTYLVQTKVPDGGATTVYRCGKLIDLCVGPHIPHTGRIKAFKLLKNSSCYFLGDATNDSLQRVYGISFPDKKLMDAHLKFLAEASMRDHRKIGKEQELFLFNEMSPGSCFWLPHGTRIYNTLVDLLRTEYRKRGYEEVITPNMYNSKLWETSGHWANYKENMFTFEVEKETFGLKPMNCPGHCLMFKSRERSYRELPWRVADFGVIHRNEFSGALSGLTRVRRFQQDDAHIFCTHDQIESEIENIFNFLQYIYGVFGFEFKMELSTRPEKYVGKIETWDAAESKLESALKKWGGNWEINAGDGAFYGPKIDIMISDALRRWHQCATIQLDFQLPNRFELEFKSKDQDSESYERPVMIHRAILGSVERMTAILTEHFAGKWPFWLSPRQVLVVPVGVKYQGYAEDVRNKLHDAGFYADVDLTGNTLQKKVRNGQMLKYNFIFIVGEQEMNEKSVNIRNRDVMEQQGKNATVSVEEVLKQLRNLKDEKRGDNVLA
Question: Which results are given for B1?
Answer: Km: 210 ± 20 µM; kcat: 1.72 ± 0.21 s⁻¹; kcat/Km: 8190 M⁻¹ s⁻¹

— paper PMC3592468
